For one data set, the system named is PDCL3 and VEGFR-2. Kind of data set: Chemical hypoxia, expression of PDCL3 and VEGFR-2. Format: cell-based. An excerpt:
To test whether, increased expression of VEGFR-2 in response to hypoxia is linked to induction of PDCL3 expression, we silenced expression of PDCL3 by siRNA and analyzed measured VEGFR-2 levels.

The test system of another data set is zebrafish embryos. Kind of data set: Zebrafish angiogenesis assay. Format: in vivo, zebrafish (Danio rerio). Particulars: microinjection into embryos, 28 hpf. As to the method: The vectors were linearized with Not I restriction enzyme, treated with Proteinase K (SIGMA) and extracted with phenol. Linearized plasmid DNA (1 μg/μl) in RNAse-free water was used for in vitro capped mRNA synthesis using the MMESSAGE MMACHINE® SP6 kit (AMBION) according to manufacturer instructions and RNA subsequently was used to inject into zebrafish embryos.
Fli-eGFP-transgenic adult male and female zebrafish (Danio rerio) were housed in […] light-dark cycle at a temperature of (26.5° C.) and a pH of (7.0-7.4) in a controlled multi-tank recirculating water system (Aquatic Habitats, Apopka, Fla.). Fish were fed twice daily with live brine shrimp (Brine Shrimp Direct, Ogden, Utah) and flake food (TetraMin; Tetra, Blacksburg, Va.). A glass capillary needle attached to a Femtojet injector (EPPENDORF) was used for injecting RNA (10 or 5 ng/μl in approximately 10 pl) into 1- or 2-cell-stage embryos. The embryos were grown at 28° C. for 3 days. The embryos were examined after 28 or 50 hpf using Zeiss immunofluorescence microscope. The images of fish under same setting were obtained for 10 fish per group at every experiment and analyzed for the length of the tail vessels using IMAGE-PRO® software and for the tail vessel plexus fluorescent intensity using Image J software.

The subject of data set [1] is VEGFR-2. Kind of data set: Protein aggregation assay (PSA dye), thermo-induced aggregation. It is filed as biochemical. As to conditions: immunoprecipitated VEGFR-2, 45° C. The method, then:
Aggregation of VEGFR-2 determined using PSA kit purchased from PROFOLDIN, Inc (Hudson, Mass.) and assay was performed according to manufacturer's guideline. […] When the PSA dye binds to the aggregate, it is immobilized and slows down the rotational movement and inducing the dye to fluoresce. In brief, VEGFR-2 immunoprecipitated from HEK-293 cells and eluded from the protein-sepharose beads. The eluded VEGFR-2 protein was incubated in the 45° C. in the presence or absence of purified GST-PDCL3 for various time points. The Fluorescence intensity was measured at […].

Data set [2] has as its system VEGFR-2. Briefly: Cycloheximide-chase / VEGF-induced downregulation of VEGFR-2. Format: cell-based. As to the method: FIG. 2A. Illustrated is the schematic of treatment of cells with cycloheximide (CHX) and VEGF. PAE cells co-expressing VEGFR-2 with empty vector (pMSCV) or PDCL3 were incubated with CHX for 90 minutes followed by stimulation with VEGF for indicated times. Whole cell lysates was blotted for VEGFR-2 and loading control protein, PLCγ1. FIG. 2B. Shown are the quantification of the half-life of mature VEGFR-2 and pre-mature VEGFR-2 based on the VEGFR-2 blot from the panel FIG. 2A. FIGS. 2C-2D. PAE cells co-expressing VEGFR-2 with empty vector (pMSCV) or PDCL3 were stimulated with VEGF for indicated times and whole cell lysates were processed as panel FIG. 2A.
PAE cells expressing VEGFR-2 alone or together with PDCL3 were serum-starved for overnight followed by incubation of cells with serum-free DMEM medium containing cycloheximide (20 μg/ml, 90 min). Cells then were stimulated with VEGF for various times to downregulate cell surface VEGFR-2. Cells were lysed and whole cell lysates was blotted for VEGFR-2 using anti-VEGFR-2 antibody. For measuring half-life of PDCL3 and HA-tagged mutant PDCL3, cells were incubated with serum-free DMEM medium containing cycloheximide (20 μg/ml) for indicated times and cells were lysed and whole cell lysates was blotted for PDCL3.

For a further data set, the system named is PAE cells. Kind of data set: Capillary tube formation on matrigel. Format: cell-based, porcine. Particulars: over-expression with VEGFR-2 in endothelial cells, 12 hours. The method, then: FIG. 6A. Cell lysates from HEK-293 cells co-expressing PDCL3 with VEGFR-2 or HA-PDCL3 with VEGFR-2 were immunoprecipitated with VEGFR-2 and immunoblotted for PDCL3 using anti-Myc antibody. Whole cell lysates was also blotted for VEGFR-2, PDCL3 and HSp70 as a loading control. Ubiquitination of VEGFR-2 was determined by immunoprecipitation with anti-VEGFR-2 followed by immunoblotting with anti-ubiquitin antibody. FIG. 6B. The graph is quantification of the ubiquitination blot of VEGFR-2. FIG. 6C. Angiogenic potential of wild-type and HA-tagged methionine mutant PDCL3 expressed in PAE cells is shown. PAE cells engineered to express VEGFR-2 alone, VEGFR-2 with wild-type PDCL3 or VEGFR-2 with HA-tagged methionine mutant PDCL3. Cells were plated on matrigel and pictures were taken after 12 hours. Image J was used to quantify tube formation. Graph is representative of three independent experiments.

The subject of data set [3] is VEGFR-1, VEGFR-2 and CSF-1R. Kind of data set: Receptor expression in HEK-293 cells expressing PDCL3. It is filed as cell-based. The method, then:
(§1) FIG. 1A. HEK-293 cells expressing VEGFR-2 were transfected with different concentrations of C-terminus Myc-tagged PDCL3. After 48 hours cells were lysed and whole cell lysates (WCL) were blotted for VEGFR-2, PDCL3 and Hsp70 for loading control. Quantification of premature (newly synthesized and partially glycosylated VEGFR-2 corresponding to lower molecular weight) and mature (fully glycosylated) forms of VEGFR-2 is shown. Mean results of three independent experiments are shown. *P=0.04 and […]. FIG. 1B. Human umbilical vein endothelial cells (HUVECs) were transfected with control siRNA or PDCL3-siRNA. After 48 hours cells serum-starved for overnight followed by stimulation with VEGF for 10 minutes. Cells were lysed and whole cell lysates were blotted for phospho-Y1054-VEGFR-2, total VEGFR-2, PDCL3 and Hsp70 for loading control. FIG. 1C. Thermo-induced aggregation of VEGFR-2 was measured using PSA dye as described in the materials and method section. FIG. 1D. In vitro transcription/translation of VEGFR-2 in the absence or presence of exogenous recombinant PDCL3 was performed as described in the materials and method section and schematic of the procedure is shown. FIG. 1E. In vitro translated VEGFR-2 protein in the absence or presence of exogenous recombinant PDCL3 was blotted for VEGFR-2. FIG. 1F. […]

The test system of data set [4] is VEGFR-2. Kind of data set: In vitro transcription/translation of VEGFR-2. It is filed as biochemical. As to the method:
as §1

Data set [5] has as its system VEGFR-1, CSF-1R and PDGFRβ. Kind of data set: Cell-free protein synthesis, rabbit reticulocyte transcription/translation system. Format: biochemical. As to conditions: TNT Quick Coupled Transcription/Translation System. The method, then:
FIG. 12A. Schematic of the experiment is shown. FIG. 12B. In vitro translation and transcription was performed as recommended by the manufacturer except in one group recombinant PDCL3 was added into reaction mixture.
To test whether PDCL3 also could increase expression of cell surface receptors in a cell-free protein synthesis system, we tested the effect of PDCL3 in rabbit reticulocyte system.

This is an account of results in patent US11406709B2, “Therapeutic and research application of PDCL3” (TRUSTEES OF BOSTON UNIVERSITY, priority 2014, dated 2022).

On to `[Cl][Co][Cl]` [cobalt chloride], for which, in the data set on PDCL3 and VEGFR-2, the “expression of PDCL3 and VEGFR-2” value was “similarly increased expression of PDCL3 and VEGFR-2”.
For “pdcl3 morpholino: PDCL3 morpholino for zebrafish, 5′CGGTGTCTGCGTTTGGGTCCTGCAT3′ (SEQ ID NO: 10), Gene Tools (all phosphorodiamidate morpholino (PMO))”, in the data set on zebrafish embryos, the “angiogenesis (intersegmental vessel formation)” value is on record as “significantly inhibited angiogenesis”.

B1: PDCL3: 239-amino acid human phosducin-like protein 3, SEQ ID NO: 1; expressed from cDNA in cells (protein, listed as Homo sapiens)
chain: MQDPNADTEWNDILRKKGILPPKESLKELEEEAEEEQRILQQSVVKTYEDMTLEELEDHEDEFNEEDERAIEMYRRRRLAEWKATKLKNKFGEVLEISGKDYVQEVTKAGEGLWVILHLYKQGIPLCALINQHLSGLARKFPDVKFIKAISTTCIPNYPDRNLPTIFVYLEGDIKAQFIGPLVFGGMNLTRDELEWKLSESGAIMTDLEENPKKPIEDVLLSSVRRSVLMKRDSDSEGD
modifications: Myc tag in some forms
notes: expressed from cDNA in cells
Take B1: the “aggregation of VEGFR-2” value in the data set on VEGFR-2 [1] is recorded as “significantly reduced aggregation of VEGFR-2 in a time-dependent manner”. Moreover, the “half-life of newly made VEGFR-2” value in the data set on VEGFR-2 [2] (PAE cells co-expressing VEGFR-2 with PDCL3) is reported as “extends the half-life of newly made VEGFR-2”. The “VEGF-induced downregulation of mature VEGFR-2” value in the data set with VEGFR-2 [2] (PAE cells, absence of cycloheximide) is “markedly slower”. Besides, the angiogenesis/capillary tube formation result in the data set with PAE cells is on record as “increased angiogenesis/capillary tube formation”. In addition, the “expression of VEGFR-1, VEGFR-2 and CSF-1R” value in data set [3] is “markedly increased expression of VEGFR-1, VEGFR-2 and CSF-1R”. The “abundance of premature and mature forms of VEGFR-2” value in data set [3] (different concentrations of Myc-tagged PDCL3, 48 hours) is “increases the abundance of premature and mature forms of VEGFR-2 in a dose-dependent manner”.

B2: recombinant PDCL3 protein: exogenous recombinant PDCL3 protein added to in vitro translation; purified GST-PDCL3 in aggregation assay (protein)
chain: B1 chain
modifications: left off: small tags and cut ends
notes: exogenous recombinant PDCL3 protein added to in vitro translation; purified GST-PDCL3 in aggregation assay
B2: in the data set with VEGFR-2 [4], the “yield of in vitro translated VEGFR-2” value is “significantly increases the yield of in vitro translated VEGFR-2”. Besides, the “expression of VEGFR-1, CSF-1R and PDGFRβ” value in data set [5] was “significantly increased expression of VEGFR-1, CSF-1R and PDGFRβ”.
